Results from the supplement of paper PMC5998384.

Key:
HeLa Kyoto [1] = experiment: solubility in G1/S (NP-40 vs SDS abundance) (log2 ratio); higher = more soluble; settings: cell cycle stage: G1/S
HeLa Kyoto [2] = experiment: melting temperature (median over replicates), in situ; higher = more thermally stable
HeLa Kyoto [3] = experiment: solubility change mitosis vs G1/S (difference of NP-40 vs SDS log2 ratios) (log2 ratio difference); higher = more soluble in mitosis
HeLa Kyoto [4] = experiment: thermal stability score vs G1/S (z-score of summed log2 fold changes over temperatures); higher = more thermally stable than in G1/S
[5] = cell cycle stage: early G1 (4.5 h after nocodazole release)
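For melting temperature (median over replicates), in situ in this document: HeLa Kyoto cells synchronized by double thymidine or nocodazole block, proteins quantified by TMT10plex mass spectrometry, three independent biological replicates.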
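For solubility change mitosis vs G1/S (difference of NP-40 vs SDS log2 ratios) in this document: synchronized HeLa Kyoto cells (double thymidine block for G1/S, nocodazole release for mitosis), protein amounts in NP-40 versus SDS lysates quantified by mass spectrometry, three biological replicates.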
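For solubility in G1/S (NP-40 vs SDS abundance) in this document: HeLa Kyoto cells arrested at G1/S by double thymidine block, proteins quantified by TMT10plex mass spectrometry in mild NP-40 versus SDS extracts, three biological replicates.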
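For thermal stability score vs G1/S (z-score of summed log2 fold changes over temperatures) in this document: synchronized HeLa Kyoto cells, proteins quantified by TMT10plex mass spectrometry, three biological replicates, mitosis taken 0.5 h after nocodazole release, G1/S directly after double thymidine block.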

## MSSVAVLTQESFAEHRSGLVPQQIKVATLNSEEESDPPTYKDAFPPLPEKAACLESAQEPAGAWGNKIRPIKASVITQVFHVPLEERKYKDMNQFGEGEQAKICLEIMQRTGAHLELSLAKDQGLSIMVSGKLDAVMKARKDIVARLQTQASATVAIPKEHHRFVIGKNGEKLQDLELKTATKIQIPRPDDPSNQIKITGTKEGIEKARHEVLLISAEQDKRAVERLEVEKAFHPFIAGPYNRLVGEIMQETGTRINIPPPSVNRTEIVFTGEKEQLAQAVARIKKIYEEKKKKTTTIAVEVKKSQHKYVIGPKGNSLQEILERTGVSVEIPPSDSISETVILRGEPEKLGQALTEVYAKANSFTVSSVAAPSWLHRFIIGKKGQNLAKITQQMPKVHIEFTEGEDKITLEGPTEDVNVAQEQIEGMVKDLINRMDYVEINIDHKFHRHLIGKSGANINRIKDQYKVSVRIPPDSEKSNLIRIEGDPQGVQQAKRELLELASRMENERTKDLIIEQRFHRTIIGQKGERIREIRDKFPEVIINFPDPAQKSDIVQLRGPKNEVEKCTKYMQKMVADLVENSYSISVPIFKQFHKNIIGKGGANIKKIREESNTKIDLPAENSNSETIIITGKRANCEAARSRILSIQKDLANIAEVEVSIPAKLHNSLIGTKGRLIRSIMEECGGVHIHFPVEGSGSDTVVIRGPSSDVEKAKKQLLHLAEEKQTKSFTVDIRAKPEYHKFLIGKGGGKIRKVRDSTGARVIFPAAEDKDQDLITIIGKEDAVREAQKELEALIQNLDNVVEDSMLVDPKHHRHFVIRRGQVLREIAEEYGGVMVSFPRSGTQSDKVTLKGAKDCVEAAKKRIQEIIEDLEAQVTLECAIPQKFHRSVMGPKGSRIQQITRDFSVQIKFPDREENAVHSTEPVVQENGDEAGEGREAKDCDPGSPRRCDIIIISGRKEKCEAAKEALEALVPVTIEVEVPFDLHRYVIGQKGSGIRKMMDEFEVNIHVPAPELQSDIIAITGLAANLDRAKAGLLERVKELQAEQEDRALRSFKLSVTVDPKYHPKIIGRKGAVITQIRLEHDVNIQFPDKDDGNQPQDQITITGYEKNTEAARDAILRIVGELEQMVSEDVPLDHRVHARIIGARGKAIRKIMDEFKVDIRFPQSGAPDPNCVTVTGLPENVEEAIDHILNLEEEYLADVVDSEALQVYMKPPAHEEAKAPSRGFVVRDAPWTASSSEKAPDMSSSEEFPSFGAQVAPKTLPWGPKR [HDLBP]
HeLa Kyoto [1]
  solubility in G1/S (log2): 0.183
HeLa Kyoto [2]; cell cycle stage: G1/S
  melting temperature: 46.8 °C
HeLa Kyoto [2]; cell cycle stage: mitosis
  melting temperature: 47.6 °C
HeLa Kyoto [3]
  solubility change mitosis (log2): -0.084
HeLa Kyoto [4]; [5]
  thermal stability score: 1.14
HeLa Kyoto [4]; cell cycle stage: mitosis
  thermal stability score: 3.41

## MSTAQSLKSVDYEVFGRVQGVCFRMYTEDEARKIGVVGWVKNTSKGTVTGQVQGPEDKVNSMKSWLSKVGSPSSRIDRTNFSNEKTISKLEYSNFSIRY [ACYP2]
HeLa Kyoto [1]
  solubility in G1/S (log2): 0.215
HeLa Kyoto [2]; cell cycle stage: G1/S
  melting temperature: 53.7 °C
HeLa Kyoto [2]; cell cycle stage: mitosis
  melting temperature: 53.4 °C
HeLa Kyoto [3]
  solubility change mitosis (log2): -0.0326
HeLa Kyoto [4]; [5]
  thermal stability score: -0.285
HeLa Kyoto [4]; cell cycle stage: mitosis
  thermal stability score: -1.11

## MSTAREQPIFSTRAHVFQIDPATKRNWIPAGKHALTVSYFYDATRNVYRIISIGGAKAIINSTVTPNMTFTKTSQKFGQWADSRANTVYGLGFASEQHLTQFAEKFQEVKEAARLAREKSQDGGELTSPALGLASHQVPPSPLVSANGPGEEKLFRSQSADAPGPTERERLKKMLSEGSVGEVQWEAEFFALQDSNNKLAGALREANAAAAQWRQQLEAQRAEAERLRQRVAELEAQAASEVTPTGEKEGLGQGQSLEQLEALVQTKDQEIQTLKSQTGGPREALEAAEREETQQKVQDLETRNAELEHQLRAMERSLEEARAERERARAEVGRAAQLLDVSLFELSELREGLARLAEAAP [HOMER3]
HeLa Kyoto [1]
  solubility in G1/S (log2): 0.263
HeLa Kyoto [2]; cell cycle stage: G1/S
  melting temperature: 48.7 °C
HeLa Kyoto [2]; cell cycle stage: mitosis
  melting temperature: 51.7 °C
HeLa Kyoto [3]
  solubility change mitosis (log2): 0.0389
HeLa Kyoto [4]; [5]
  thermal stability score: -1.1
HeLa Kyoto [4]; cell cycle stage: mitosis
  thermal stability score: -1.09

## MSTNGDDHQVKDSLEQLRCHFTWELSIDDDEMPDLENRVLDQIEFLDTKYSVGIHNLLAYVKHLKGQNEEALKSLKEAENLMQEEHDNQANVRSLVTWGNFAWMYYHMGRLAEAQTYLDKVENICKKLSNPFRYRMECPEIDCEEGWALLKCGGKNYERAKACFEKVLEVDPENPESSAGYAISAYRLDGFKLATKNHKPFSLLPLRQAVRLNPDNGYIKVLLALKLQDEGQEAEGEKYIEEALANMSSQTYVFRYAAKFYRRKGSVDKALELLKKALQETPTSVLLHHQIGLCYKAQMIQIKEATKGQPRGQNREKLDKMIRSAIFHFESAVEKKPTFEVAHLDLARMYIEAGNHRKAEENFQKLLCMKPVVEETMQDIHFHYGRFQEFQKKSDVNAIIHYLKAIKIEQASLTRDKSINSLKKLVLRKLRRKALDLESLSLLGFVYKLEGNMNEALEYYERALRLAADFENSVRQGP [IFIT1]
HeLa Kyoto [1]
  solubility in G1/S (log2): 0.322
HeLa Kyoto [2]; cell cycle stage: G1/S
  melting temperature: 49.1 °C
HeLa Kyoto [2]; cell cycle stage: mitosis
  melting temperature: 48.3 °C
HeLa Kyoto [3]
  solubility change mitosis (log2): -0.063
HeLa Kyoto [4]; [5]
  thermal stability score: 1.47
HeLa Kyoto [4]; cell cycle stage: mitosis
  thermal stability score: 2.07

## MSVDMNSQGSDSNEEDYDPNCEEEEEEEEDDPGDIEDYYVGVASDVEQQGADAFDPEEYQFTCLTYKESEGALNEHMTSLASVLKVSHSVAKLILVNFHWQVSEILDRYKSNSAQLLVEARVQPNPSKHVPTSHPPHHCAVCMQFVRKENLLSLACQHQFCRSCWEQHCSVLVKDGVGVGVSCMAQDCPLRTPEDFVFPLLPNEELREKYRRYLFRDYVESHYQLQLCPGADCPMVIRVQEPRARRVQCNRCNEVFCFKCRQMYHAPTDCATIRKWLTKCADDSETANYISAHTKDCPKCNICIEKNGGCNHMQCSKCKHDFCWMCLGDWKTHGSEYYECSRYKENPDIVNQSQQAQAREALKKYLFYFERWENHNKSLQLEAQTYQRIHEKIQERVMNNLGTWIDWQYLQNAAKLLAKCRYTLQYTYPYAYYMESGPRKKLFEYQQAQLEAEIENLSWKVERADSYDRGDLENQMHIAEQRRRTLLKDFHDT [ARIH2]
HeLa Kyoto [1]
  solubility in G1/S (log2): -0.242
HeLa Kyoto [2]; cell cycle stage: G1/S
  melting temperature: 51.8 °C
HeLa Kyoto [2]; cell cycle stage: mitosis
  melting temperature: 52.3 °C
HeLa Kyoto [3]
  solubility change mitosis (log2): -0.151
HeLa Kyoto [4]; [5]
  thermal stability score: 0.643
HeLa Kyoto [4]; cell cycle stage: mitosis
  thermal stability score: -0.0869

## MSVGCACPGCSSKSFKLYSPKEPPNGNAFPPFHPGTMLDRDVGPTPMYPPTYLEPGIGRHTPYGNQTDYRIFELNKRLQNWTEECDNLWWDAFTTEFFEDDAMLTITFCLEDGPKRYTIGRTLIPRYFRSIFEGGATELYYVLKHPKEAFHSNFVSLDCDQGSMVTQHGKPMFTQVCVEGRLYLEFMFDDMMRIKTWHFSIRQHRELIPRSILAMHAQDPQMLDQLSKNITRCGLSNSTLNYLRLCVILEPMQELMSRHKTYSLSPRDCLKTCLFQKWQRMVAPPAEPTRQQPSKRRKRKMSGGSTMSSGGGNTNNSNSKKKSPASTFALSSQVPDVMVVGEPTLMGGEFGDEDERLITRLENTQFDAANGIDDEDSFNNSPALGANSPWNSKPPSSQESKSENPTSQASQ [LDB1]
HeLa Kyoto [1]
  solubility in G1/S (log2): -0.0659
HeLa Kyoto [2]; cell cycle stage: G1/S
  melting temperature: 54.2 °C
HeLa Kyoto [2]; cell cycle stage: mitosis
  melting temperature: 55.8 °C
HeLa Kyoto [3]
  solubility change mitosis (log2): -0.0611
HeLa Kyoto [4]; [5]
  thermal stability score: -3.74
HeLa Kyoto [4]; cell cycle stage: mitosis
  thermal stability score: -2.44

## MSVGFIGAGQLAYALARGFTAAGILSAHKIIASSPEMNLPTVSALRKMGVNLTRSNKETVKHSDVLFLAVKPHIIPFILDEIGADVQARHIVVSCAAGVTISSVEKKLMAFQPAPKVIRCMTNTPVVVQEGATVYATGTHALVEDGQLLEQLMSSVGFCTEVEEDLIDAVTGLSGSGPAYAFMALDALADGGVKMGLPRRLAIQLGAQALLGAAKMLLDSEQHPCQLKDNVCSPGGATIHALHFLESGGFRSLLINAVEASCIRTRELQSMADQEKISPAALKKTLLDRVKLESPTVSTLTPSSPGKLLTRSLALGGKKD [PYCR2]
HeLa Kyoto [1]
  solubility in G1/S (log2): 0.291
HeLa Kyoto [2]; cell cycle stage: G1/S
  melting temperature: 54.9 °C
HeLa Kyoto [2]; cell cycle stage: mitosis
  melting temperature: 54.5 °C
HeLa Kyoto [3]
  solubility change mitosis (log2): -0.0672
HeLa Kyoto [4]; [5]
  thermal stability score: 1.32
HeLa Kyoto [4]; cell cycle stage: mitosis
  thermal stability score: -3.51

## MSVTLHTDVGDIKIEVFCERTPKTCENFLALCASNYYNGCIFHRNIKGFMVQTGDPTGTGRGGNSIWGKKFEDEYSEYLKHNVRGVVSMANNGPNTNGSQFFITYGKQPHLDMKYTVFGKVIDGLETLDELEKLPVNEKTYRPLNDVHIKDITIHANPFAQ [PPIL3]
HeLa Kyoto [1]
  solubility in G1/S (log2): 0.455
HeLa Kyoto [2]; cell cycle stage: G1/S
  melting temperature: 48.9 °C
HeLa Kyoto [2]; cell cycle stage: mitosis
  melting temperature: 50 °C
HeLa Kyoto [3]
  solubility change mitosis (log2): -0.00294
HeLa Kyoto [4]; [5]
  thermal stability score: 1.02
HeLa Kyoto [4]; cell cycle stage: mitosis
  thermal stability score: 1.31

## MSYDRAITVFSPDGHLFQVEYAQEAVKKGSTAVGVRGRDIVVLGVEKKSVAKLQDERTVRKICALDDNVCMAFAGLTADARIVINRARVECQSHRLTVEDPVTVEYITRYIASLKQRYTQSNGRRPFGISALIVGFDFDGTPRLYQTDPSGTYHAWKANAIGRGAKSVREFLEKNYTDEAIETDDLTIKLVIKALLEVVQSGGKNIELAVMRRDQSLKILNPEEIEKYVAEIEKEKEENEKKKQKKAS [PSMA7]
HeLa Kyoto [1]
  solubility in G1/S (log2): 0.332
HeLa Kyoto [2]; cell cycle stage: G1/S
  melting temperature: 59 °C
HeLa Kyoto [2]; cell cycle stage: mitosis
  melting temperature: 62.2 °C
HeLa Kyoto [3]
  solubility change mitosis (log2): -0.0151
HeLa Kyoto [4]; [5]
  thermal stability score: -1.05
HeLa Kyoto [4]; cell cycle stage: mitosis
  thermal stability score: -2.15
